Measured values published in the nanobody polyreactivity screen of Harvey et al. (2022).

Test: yeast display, Sf9 membrane polyspecificity reagent, FACS + sequencing; frameworks hold sequencing errors
Summary of the method: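 In a synthetic yeast display library (Saccharomyces cerevisiae BJ5465), nanobody expression was induced with galactose for 36–48 hours. FACS gates were set low and high (top ~1%) using anti-HA fluorescence for expression and streptavidin fluorescence for binding of the Sf9 membrane reagent. Each polyreactivity label is drawn from the gate of origin.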

| Sequence | polyreactivity (PSR sort gate) |
| --- | --- |
| QVQLVESGGGLVQAGGSLRLSCAPSGGTFYANDMGWYRQAPGKERELVATISKSGGSTYYAESVKRPFTISRDNAKNTVYCQMNSLKPEVTAVYYCAARTTYLYGMYYWGQGTQVTVSS | low polyreactivity |
| QVQLVESGGGLVQAGGSLRLSCAASGRIFNYNAMGWYRQAPGKERELVAAITRSTGNTYYADSVKGRFTISRDNAKNTVYLQMNSLKPEDTAVYYCAAAYAYWRKYDYWGQGTQVTVSS | high polyreactivity |
| QVQLVESGGGLFQAGGRLRLSCAASGRNCNAYTMGWYRQAPGKERELVAAISRRGGSTYYADSVKGRFTISRDNAQNTVSLQMNSLNPEDTAVYYCATKSQYDYDYWGQGTQVTVSS | high polyreactivity |
| QVQLVESGGGLVQAGGSLRLSCAASGFTFSWYAMGWYRQAPGKERELVAAITSGGSTYYADSVKGRFTLSRDNAKNTVYLQMISLKPEDTAVYYCNKAFASIAPVWSGYDFWGQGTQVTVSS | low polyreactivity |
| QDQLVESGGGLVQAGGSLRLSCAASGFNFRYYAMGWYRQAPGKERELVAAISSGGRTSYADSVKGRFTISRDNAKNTVYLQMNSLKPEDTAVYYCAADRWRGLFYYGNDYWGQGTQVTVSS | high polyreactivity |
| QVQLVESGGGLVQAGGSLRLSCAASGRTFRSYAMGWYRQAPGKDRELVAAISYGGGRTFYADSVKGRFTISRDNEKNTVYLQMNSLKPEDTAVYYCNAAFPRSYRFDYWGQGTQLTVSS | high polyreactivity |
| QVQLVESGGGLVQAGGSLRLSCAASGRTFVSYAMGWYRQAPGKERELVAAIRWGTGSRTYYADSVKGRFTISRDNAKNTVYLQMNSLKPEDTAVYYCAKTDWYPYGYWGQGTQVTVSS | low polyreactivity |
| QVQLVESGGGLVQAGGSLRLSCAASGFTFRRNAMGWYRQAPGKERELVAAITYNGGTTYYADSVKGRFTISRDNAKNTVYLLMNSLKPEDTAVYYCNAPYGRQGYDYWGQGTQVTVSS | low polyreactivity |
| QVQLVESGGGLVQAGGSRRLSCAASGSTFWYYAMGWYRQAPGKERELVAAIRWSDGSTYYADSVKGRFTISRDNAKNTVYLQMTSLKPEDTAVYYCEYYYWGQGTQVTVSS | low polyreactivity |
| QLQLVQSGGGLVQAGGSLRLSCAASGITSPYAMGWYRQAPGKERELVARNSKGGGSTYYADSVKGRFTISRDNAKNTVYLQMNSLKPEDTAVYYCAADWYNRSRPRYYTRYYYWGQGTQVTVSS | high polyreactivity |
| QVQLVESGGGLVQAGGSLRLSCAASGSTFDVYAKGWYRQAPGKEWELVAAISRSGGSTYYADSVKGRFTISRDNAKNTVYLQMNSLKPEDTAVYYCNPRLARWGSDEYNYWGQGTQETVSS | low polyreactivity |
| QVQLVESGGGLVQAGGSLRLSCAASGSTFVGNAMGWYRQAPGKERELVAAITGGGGSTYYADSVKGRFTISRDNAKNTVYLQMNSLKPEDTAVYYCARDRTDYYVWYVRYYYWGQGTQVTVSS | low polyreactivity |
| QVQLVESGGVLVQAGGSLRLSCAASGSIFSGYSMGWYRQAPGKERELVAAITWNGGSTYYADSVKGRFTISRDNAKNTVYLQMNILKPEDTAVYYCAAERAARFNYWGQGTQVTVSS | high polyreactivity |
| QVQLVESGGGLVQAGGSLRLSCAASGLTFKTYAMGWYRQAPGKERELVAAITRNGGSTYYADSVKGRFTISRDNAKNTVYLQMNSLKPEDTAVYYCAARRAYDNRHDYWGQGTQVTVSS | high polyreactivity |
| QVQLVESGGGLVQAGGSLRLSCAASGSTFGYYTMGWYRQAPGKERELVAAISWSGGSTYYADSVKGRFTISRDNAKNTVYLQMNSLKPEDTAVYYCAALGYTYKYYSYYWGQGTQVTVSS | high polyreactivity |
| QVEHVESGGALGQAGGSLRLSCAASGITFAPYAMGWYREAPGKETEFDAGINTGGSKYYADSVKGRFTISRDNAKNTFYVQMNSLKPEDTAVYFCATESYPADQDIPGSDYWGQGTQVTVSS | low polyreactivity |
| QVQLVESGGGLVQAGGSLRLSCAPSGRNYDRNAMGWYRQAPGKERELVARIDPGDDTNYADSVKGRFTISRDNAKNTVYLQMNSRKPEDTAVYDCASDPDYFLYRTAYYEFDYWGQGTQVTVSS | low polyreactivity |
| QVQLVESGGGLVQAGGSLRLSCAASGITFVHYAMGWYRQAPGKERELVAAISSGGGSTYYADSVKGRFTLSRDHAKNTGNLQMHSLNPEDTAVDNCAAYVLPYGEYDYWGQGTQVTVSS | low polyreactivity |
| QVQLVESAGGLVQAGGSLRLSCPASGSIFQPYAMGWYRQAPGKERELVAAINGRGGSTHYADSVKGRFTISRDNAKNTVYLQMNSLKPEDTAVYYCAARYYRDYRWYTYAYDYWGQGTQVTVSS | high polyreactivity |
| QLQLVESGGGLVQAGGSLRLSCAPTGRTFYRNAMGCKRPAPGKESELVASIRRNGGSTYYADSVKGRFTITRDNAKNTVYLPMNSMKPEDTAVYYCAAYFSYAGPKGAVYGMDYWGQGTQVTVSS | high polyreactivity |
| QVQLVESGGGLVQAGGSLRLSCAASGSIFQGNAMGWYRQAPGKERDLVAAISGGDSTNYADSVKGRFTISRDNAKNNVYLQMNSLKPEDTAVFYCNALSHWAPASYEYDYWGQGTQVTVSS | low polyreactivity |
| QVQLVESGGGLVQAGGSLRLSCAASGRILSYYAMGWYRQAPGKERELVATISASGGSTYYADSVKGRFTISRDNAKNTVYLQMNSLKPEDTAVYYCAAARVPAYYLRYFYRTTYDYWGQGTQVTVSS | high polyreactivity |

| Sequence | polyreactivity (PSR sort gate) |
| --- | --- |
| QVQLVESGGGLVQAGGSLRLSCAASGFTLDKYAMGWYRQAPGKERELVAAITWSGGSTYYADSVKGRFTISRDNAKNTVYLQMNSLKPEDTAVYYCNVLRYRLWGQGTQVTVSS | high polyreactivity |
| QVQLVESGGGLVQAGGSLRLSCAASGIIFPFYAMGWYRQAPGKERELVAAITSGGDTYYADSVKGRFTISRDNAKNTVYLQMNSLKPEDTAVYYCAAVYRRQYGYWGQGTQVTVSS | high polyreactivity |
| QVQLVESGGGLVQAGGSLRLSCAASVFTFKINGMGWYRQAPGKEREFVATIRTSTGRTYYADSVKGRFTISRDNAKNTVYLQMNSLKPEDTAVYYCDTRVRQGNTHPNGKSDDYWGQGTQVTVSS | high polyreactivity |
| QVQLVESGGGLVQAGGSLRLSCAASGSISYINAMGWYRQAPGKERELVARIRSGDRTNYADSVKGRFTISRDNAKNTVYLQMNSLKPEDTAVYYCAARGLRTGGYWGQGTQVTVSS | high polyreactivity |
| QVQLVESGGGLDQAGGSLRLSCAASARIFAAYAMGWYRQAPGKEREFVAAITTAGSTHYADSVKGRFTISRDNAKYTVYLQMNSLKPEDTPVYYCAADGIARAYVLFDAYDFLYDYWGQGTQVTVSS | low polyreactivity |
| QVQLLESGGGLVQAGGSLRLSCAASGRNFSRYAMGWYRQAPGKERELVAGITRSGTTTYYADSVKGRFTISRDNAKNTVYLQMNSLKPEDTAVYYCAAPPIRPNLYDYWGQGTQVTVSS | high polyreactivity |
| QVQLVESGGGLVQAGGTLRLSCAASGSTFLINAMGWYRQAPGKERELVAAISWGGGSTYYADSVKGRFTISRDNGKNSVDLQMNRLTPEDTAVYYCAARYWYRVDYWGQGTQVTVSS | high polyreactivity |
| QVQLVESGGGLVQAGGSLRLSCAASGSTFWANAMGWYRQAPGKEREIVATISWSDGSTYYAASVKGRFTISRDNAKNTVYLQRNSLNPEDTAVYYCASDVVRFFTYKYDDWGQGTQVTVSS | low polyreactivity |
| QVQLVESGGGLVQAGGSLRLSCAASGSTFFINAMGWYRQGPGKERELVASISYSGGSTYYAHSVKGRFTISRDNAKNTVYLQLNSLKPEDTAVYYCNADVRVFLHYYKYNYWGQGTQVTVSS | low polyreactivity |
| QVQLVESGGGLVQAGGSLRLSCAASGSIFKRYTMGWYRQAPGKERELVASIRSRAGNTYYADSVKGRFTISRDNAKNTVYLQMNSLKPEDTAVYYCAVSAWGYYRTSYGYWGQGTQVTVSS | high polyreactivity |
| QVQLVESGGGLVQAGGSLRLSCADSGRIFHTYAMGWYRHAPGKERELVAAISKGGSGTYYADSVKGRFTISRDNAKNTVYLQRNSLKPEDTAVYYCAADLTYHYPRYITYEYWGQRTQVTVSS | low polyreactivity |
| HVQLVESGGGLVQAGGSLRLSCAATGRIFWLYAMGWYRQAPGKERELVAAISSGGSTSYADSVKGRFTISRDNAKNTVYVQMNSLKPEDTAVYYCNATLLFPQLDGPESGEFDYWGQGTQRTVSS | low polyreactivity |
| QVQLVESGGGLVQAGGSLRLSCAASGRIFWGYAMGWYRQAPGKERELVAGITTGGSTKYADSVKGRFTISRDNAKNTVYLQMNSLKPVDTAVYYCAADDQYGYVYYAFWGYDYWGQGTQVTVSS | low polyreactivity |
| QVQLVESGGGLVQAGGSLRLSCAASGSTFWPYAMGWYRQAPGKEREMVAAITWRGGRTYYADTVKGRFTISRDNAQNTVYLQMNSLKPEDTAVSYCNTGPWSRSWSQKYEYWGQGTQVTVSS | high polyreactivity |
| QVQLVESGGGLVQAGGSLRLSCAASGIIFYKFAMGWYRQAPGKERELVASISRRGGNTYYADSVKGRCTISRDNAKNTVYLQMNSLKPEDTAVYDSAAPKRSNEPYDYWGQGTQVTVSS | high polyreactivity |
| QVQLVESGGGLVQAGGSLRLSCAASGRILKVYAMGWYRQAPGKERELVAAISVNGGRTYYADSVKGRFTISRDNAKNTVYLQMNSLKPEDTAVYYCAKRLYKPGNVFYSVDQSDYWGQGTQVTVSS | low polyreactivity |
| QVQLVESGGRLVQAGGSLRLRCAASGRTFVTNAMGWYRQAPGQERELVAAISGSGGSTYYADSVKGRFTISRDNAKNTFYLQMNSLKPEDTAVYDCATSYSLGYVRYGYWGQGSQVTVSS | high polyreactivity |
| QVQLVESGGGLVQAGGSLRLSCAASGRTFRRYAMGWSRQAPGKERELVATISSGGSTNYADSVKGRFTISRDNAKNTVYLQMNSLKPEDTAVYYCKARGRSTVTYGYWGQGTQVTVSS | high polyreactivity |
| QVQLVESGGGLVQAGGSLRLSWAASGITLHGYAMGWYRQAPGKERELVAAITGSGGRTYYADSVKGRFTISRDNAKNTVYLQMNSLKPEDTAVYYCNAGAVYWGYSRGWYERDYWGQGTQVTVSS | high polyreactivity |
| QVQLVESGGGLVQAGGSLRLSCAASGIIFGSYAMGWYRQAPGKERELVAAISRGTSTYYAVSVKGRFTISRDNAKNTVYLQMNSLKPEDSAVYYCAATRQQYGPHSRFVYVNYYYCGQGTQVTVSS | low polyreactivity |
| QVQLVESGGGLVQAGGSLRLSCAASGSIFAYYAMGWYRQAPGKERELVADITSSGGITYYADSVKGRFTISRDNAKNTVYLQMISLKPEDTAVYYCNADSWAIGGGSYPFDYWGQGTQVTVSS | low polyreactivity |
